In publication PMC12040651, “cAMP-independent Crp homolog adds to the multi-layer regulatory network in Porphyromonas gingivalis”:

How the values were obtained:
[1] = target: Crp^Pg protein (Porphyromonas gingivalis A7436 Crp homolog, CRP/FNR superfamily) (Porphyromonas gingivalis A7436); experiment: cross-linking; 10 uM purified Crp^Pg in PBS, 30 min at room temperature, without or with 1 mM cAMP, then 0.2% formaldehyde for 1 h at 37°C; SDS-PAGE with CBB G-250 staining; monomer to dimer
[2] = target: T1, CrpPg (Crp homolog) (Porphyromonas gingivalis A7436, UniProt Q7MAW7 1-232); experiment: EMSA; settings: protein: recombinant, tags: 6xHis-MBP N-terminal, removed with Factor Xa, chain copies: 2, blunt
T1 sequence: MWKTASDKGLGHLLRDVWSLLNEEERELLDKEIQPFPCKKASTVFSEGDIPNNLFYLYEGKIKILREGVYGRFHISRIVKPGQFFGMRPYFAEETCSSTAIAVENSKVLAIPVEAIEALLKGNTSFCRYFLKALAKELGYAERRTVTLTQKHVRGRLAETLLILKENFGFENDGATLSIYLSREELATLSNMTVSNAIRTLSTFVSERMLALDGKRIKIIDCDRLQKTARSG

Crp^Pg protein (Porphyromonas gingivalis A7436 Crp homolog, CRP/FNR superfamily) (natural protein)
stoichiometry N [1]: 2

B1: crpPg promoter fragment 4 (dsDNA)
DNA 1: CTCATAATAATAGTTCTACGGCCTTTCTTCCTCGTTGTACGGATTTGAGCAAATAGACATTCTCTGAACACTTATATGTGGAAGACAG
DNA 2: CTGTCTTCCACATATAAGTGTTCAGAGAATGTCTATTTGCTCAAATCCGTACAACGAGGAAGAAAGGCCGTAGAACTATTATTATGAG
binding result ([2]; label: 5' biotin via PBM_0206 (probe)): binds

B2: mfa promoter fragment 5 (dsDNA)
DNA 1: ATTTAATATTAATCCTTTTAAACATTTGGCTTATGAAGTTAAACAAAATGTTTTTGGTCGGAGCATTGCTCTCATTGGGCT
DNA 2: AGCCCAATGAGAGCAATGCTCCGACCAAAAACATTTTGTTTAACTTCATAAGCCAAATGTTTAAAAGGATTAATATTAAAT
binding result ([2]; label: 5' biotin via PBM_0217 (probe)): binds
